Assay results reported in patent publication US5849890, “High affinity oligonucleotide ligands to chorionic gonadotropin hormone and related glycoprotein hormones” (NeXstar Pharmaceuticals, Inc.).

B1: 2nd generation ligand 5 (ssRNA)
RNA: GGGAGGACGAUGCGGGUUUAAUCUCGGAUUGAACGAUCCUUUCUGUAAUUAGUCCAGACGACUCGCCCGA
modifications: 2'-F all pyrimidines
B2: 2nd generation ligand 19 (ssRNA)
RNA: GGGAGGACGAUGCGGUUUGACGUAUAAUUGAACGAUCCUUUUCUAGCUUAGACCAGACGACUCGCCCGA
modifications: 2'-F all pyrimidines
B3: 2nd generation ligand 72 (ssRNA)
RNA: GGGAGGACGAUGCGGAUUCGAUGUAGUUUGAACGAUCCUUGUAUAUAUCGGAUCAGACGACUCGCCCGA
modifications: 2'-F all pyrimidines
B4: 2nd generation ligand 10 (ssRNA)
RNA: GGGAGGACGAUGCGGAACACCAAUCUUUUUGAACGAUCCUUCGUGGGAGUGCAUCAGACGACUCGCCCGA
modifications: 2'-F all pyrimidines
B5: 2nd generation ligand 9 (ssRNA)
RNA: GGGAGGACGAUGCGGUUCUACACGAUAUUUGAACGAUCCUUGUAUCUUAGGUCCCAGACGACUCGCCCGA
modifications: 2'-F all pyrimidines
B6: 2nd generation ligand (SEQ 118) (ssRNA)
RNA: GGGAGGACGAUGCGGGUUCGACAUAAUCUUGAACGAUCCUUGAUUACUUGGUCCCAGACGACUCGCCCGA
modifications: 2'-F all pyrimidines
B7: 2nd generation ligand 14 (ssRNA)
RNA: GGGAGGACGAUGCGGUUCGACACGAAAGUUGAACGAUCCUUCUAUCUGUUGGACCAGACGACUCGCCCGA
modifications: 2'-F all pyrimidines
B8: 2nd generation ligand 88 (ssRNA)
RNA: GGGAGGACGAUGCGGUUCGUUACGAUAAUUGAACGAUCCUUUUAUCUUUCAGUCCAGACGACUCGCCCGA
modifications: 2'-F all pyrimidines
B9: 2nd generation ligand 89 (ssRNA)
RNA: GGGAGGACGAUGCGGUGCAUGAUUUAGUUGAACGAUCCUUCCAACUUCCAGCACAGACGACUCGCCCGA
modifications: 2'-F all pyrimidines
B10: 2nd generation ligand 20 (ssRNA)
RNA: GGGAGGACGAUGCGGUGUUCAUGCUUGAUUGAACGAUCCUUUCAUAGUGUUGGUCAGACGACUCGCCCGA
modifications: 2'-F all pyrimidines
B11: 2nd generation ligand 86 (ssRNA)
RNA: GGGAGGACGAUGCGGUUCAACAACGUACUUGAACGAUCCUUGUGCUCGUUGAUCCAGACGACUCGCCCGA
modifications: 2'-F all pyrimidines
B12: 2nd generation ligand 23 (ssRNA)
RNA: GGGAGGACGAUGCGGGUUUAAUACAAAGUUGAACGAUCCUUCUUUGCAUUGGACCAGACGACUCGCCCGA
modifications: 2'-F all pyrimidines
B13: 2nd generation ligand 98 (ssRNA)
RNA: GGGAGGACGAUGCGGGUUCCAGUAUUAGUUGAACGAUCCUUCUUAUCUGGAGUCCAGACGACUCGCCCGA
modifications: 2'-F all pyrimidines
B14: 2nd generation ligand 93 (ssRNA)
RNA: GGGAGGACGAUGCGGUUCUAGGUCGAAAUUGAACGAUCCUUUUUCGCUAUGGAUCAGACGACUCGCCCGA
modifications: 2'-F all pyrimidines
B15: 2nd generation ligand 11 (ssRNA)
RNA: GGGAGGACGAUGCGGGAUUCUCUUUGAGUUGAACGAUCCUUCUCAUCGCACUUGCCAGACGACUCGCCCGA
modifications: 2'-F all pyrimidines
B16: 2nd generation ligand 69 (ssRNA)
RNA: GGGAGGACGAUGCGGGUUUCACUUCAAGUUGAACGAUCCUUCUUGGCUUGAGCACAGACGACUCGCCCGA
modifications: 2'-F all pyrimidines
B17: 2nd generation ligand 83 (ssRNA)
RNA: GGGAGGACGAUGCGGUUUGAUGAGGUAGUUGAACGAUCCUUCCAUCCGUUAGACCAGACGACUCGCCCGA
modifications: 2'-F all pyrimidines
B18: 2nd generation ligand 91 (ssRNA)
RNA: GGGAGGACGAUGCGGUUCAUUUUUGUGUUGAACGAUCCUUCACUAACCUACCACAGACGACUCGCCCGA
modifications: 2'-F all pyrimidines

target: human chorionic gonadotropin (hCG) heterodimer (Homo sapiens, UniProt P01215;P0DN86 P01215:25-116,P0DN86:21-165); assay: filter; conditions: tags: Calbiochem or Vitro Diagnostics (14,000 IU/mg); chain copies: alpha/beta heterodimer (stated); label: 32P
Sequence (P01215 25-116, chain 1 of 2, other chains not shown): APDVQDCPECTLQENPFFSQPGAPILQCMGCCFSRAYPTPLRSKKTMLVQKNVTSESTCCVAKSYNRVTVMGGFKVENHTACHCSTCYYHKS

Compared with B1, B2 is higher in binding signal: 3.14 % bound at 100 nM for the first, 8.52 % bound at 100 nM for the second.

Compared with B3, B4 is lower in binding signal: 0.3 % bound at 100 nM for the first, 0 % bound at 100 nM for the second.

Going from B5 to B6, the binding signal rises from 9.98 % bound at 100 nM to 13 % bound at 100 nM.

Compared with B7, B8 is lower in binding signal: 15.4 % bound at 100 nM for the first, 0.32 % bound at 100 nM for the second.

First: B9
Second: B10
The binding signal of the first is lower: 0.21 % bound at 100 nM for the first, 8.37 % bound at 100 nM for the second.

Going from B11 to B12, the binding signal rises from 0.57 % bound at 100 nM to 13 % bound at 100 nM.

First: B13
Second: B14
The binding signal of the first is higher: 11.7 % bound at 100 nM for the first, 7.25 % bound at 100 nM for the second.

Compared with B15, B16 is higher in binding signal: 10 % bound at 100 nM for the first, 18.8 % bound at 100 nM for the second.

First: B17
Second: B18
The binding signal of the first is higher: 4.48 % bound at 100 nM for the first, 2.36 % bound at 100 nM for the second.
